Test results: PMC8070244, “The MarR-Type Regulator PA3458 Is Involved in Osmoadaptation Control in Pseudomonas aeruginosa” (International Journal of Molecular Sciences, 2021)

Target: the molecule itself
Assay: SEC-MALS; 100 uL of 1 mg/ml sample on Superdex 200 Increase 10/300 in LEW buffer (50 mM NaH2PO4, 300 mM NaCl pH 8), room temperature, 0.5 mL/min

B1: PA3458-His6 (natural protein, Pseudomonas aeruginosa PAO1161, UniProt Q9HYE8 1-157, looked up)
chain: MVESNKTAADTYSLAIFRAIRRLQQAAEIHSKRLSRYGGLTPLQLLILHVLAVEGELTATQLAKLVSLSQASLSGVLDRLEGRGLLYRRRDEQDRRKSWLHLDPAGHEALAEAPPLLPEYVIERFAALPEWERHGLLAALLRAADLFGLPEEDVEEE
notes: PA3458, MarR-type transcriptional regulator of Pseudomonas aeruginosa PAO1161 (locus D3C65_07830; PAO1 ortholog PA3458), 157 residues (17.6 kDa); the gene was amplified with primers 13#/14# (forward primer begins at the ATG; 483 bp fragment) and cloned NcoI/HindIII in pET28a; it says that the gene (157 codons) was cloned as a PA3458-his6 fusion, with the forward primer starting at the ATG; Linker …
Question: B1 was tested. Which “stoichiometry N” value did it give?
Answer: 4
